Entries after “also recorded” stand apart in the source; their conditions may differ. Where two headings read alike, the source gives them in different places.
Key:
[1] = tested on: K307E mutant of FKBP^92-380; assay: Isothermal titration calorimetry (ITC), binding to the K307E carboxylate clamp mutant; conditions: 20 mM Tris, 300 mM NaCl, 1mM EDTA pH 7.5, 700 to 800 μM mutant injected into 50 μM yeast Hsp90^546-709
Excerpt: (§1) FKBP8 (FKBP^1-380) was cloned as an NdeI-HindIII fragment representing amino acids 1–380 and lacking the C-terminal trans-membrane helix into pDMXV4 with a non-cleavable C-terminal His6-Tag (Fig 1). The FKBP38 immunophilin domain, representing amino acids 92–207 (FKBP^92-207), and a larger fragment containing both the immunophilin and TPR domain (FKBP^92-380) were also cloned in pDMXV4 (Fig 1). The K307E mutation was generated in the FKBP8^92-380 construct by PCR mutagenesis. Full-length human Hsp90β, human Hsp70, two middle domain human fragments (Hsp90β^295–689 and Hsp90β^295–724) and a yeast C-terminal fragment of Hsp90 (yHsp90^546-709) were expressed from pRSETA as His-tagged fusions. The Hsp90α^464–732 construct was expressed from p2E (A. Oliver, University of Sussex), as a PreScission cleavable His-tagged fusion. […]
(§2) Proteins were dialysed overnight into 20 mM Tris, 300 mM NaCl, 1mM EDTA pH 7.5. The heat of interaction was measured on an ITC200 microcalorimeter (Microcal), with a cell volume of 200 μL, under the same buffer conditions. […] Heats of dilution were determined in a separate experiment by diluting protein into buffer, and the corrected data were fitted using a non-linear least-squares curve-fitting algorithm (Microcal Origin) with three floating variables: stoichiometry, binding constant and change in enthalpy of interaction.

[2] = biological target: T1, FKBP^1-380 (Homo sapiens, UniProt Q14318); assay: Gel-filtration chromatography, co-migration with FKBP^1-380 (as in the legend of Fig 2L); assay type: binding; conditions: Fig 2L legend: yHsp90^546-709, FKBP^1-380 and their mixture; Superdex 200, pH 7.5
T1 construct: representing amino acids 1–380 and lacking the C-terminal trans-membrane helix; made in house; host or cells: E. coli BL21 (DE3)

[3] = tested on: FKBP^92-380; assay: Analytical gel-filtration chromatography, co-migration with FKBP^92-380; assay type: binding; conditions: Superdex 200; equimolar mixture; 50 mM Tris, 300 mM NaCl, 1 mM EDTA, 0.5 mM TCEP, pH 7.5
Experimental: Equimolar concentrations of the C-terminal fragment of yHsp90^546-709 and FKBP^92-380 were mixed and loaded onto an analytical Superdex 200 column equilibrated in 50 mM Tris, 300 mM NaCl, 1 mM EDTA and 0.5 mM TCEP at pH 7.5.

[4] = tested on: yeast Hsp90; design: method as in 2 sources, ref [41] = [41]; PMID 12504007; doi:10.1016/s1097-2765(02)00785-2; 41 Panaretou B , Siligardi G , Meyer P , Maloney A , Sullivan JK , Singh S , et al Activation of the ATPase activity of hsp90 by the stress-regulated cochaperone aha1 . Mol Cell . 2002; 10 ( 6 ): 130 ||| ref [42] = [42]; PMID 9927435; doi:10.1093/emboj/18.3.754; 42 Prodromou C , Siligardi G , O'Brien R , Woolfson DN , Regan L , Panaretou B , et al Regulation of Hsp90 ATPase activity by tetratricopeptide repeat (TPR)-domain co-chaperones . Embo J . 1999; 18; conditions: cited from earlier work
[5] = tested on: FKBP^92-207; assay: Isothermal titration calorimetry (ITC), binding to the immunophilin domain alone; conditions: full-length Hsp90β, 20 mM Tris, 300 mM NaCl, 1mM EDTA pH 7.5, 700 to 800 μM FKBP^92-207 injected into 50 μM Hsp90β
Excerpt: as §1, §2

[6] = biological target: FKBP^92-380; assay: Isothermal titration calorimetry (ITC), binding to FKBP^92-380 (FKBP38 isoform); conditions: ITC (ITC200); 20 mM Tris, 300 mM NaCl, 1mM EDTA pH 7.5; 700 to 800 μM FKBP^92-380 injected into 50 μM intact Hsp90β
Excerpt: as §1, §2

[7] = biological target: T1, FKBP^1-380; assay: Isothermal titration calorimetry (ITC), binding to FKBP^1-380 (FKBP8 isoform lacking the transmembrane domain); conditions: ITC (ITC200); intact protein or domain fragment; 20 mM Tris, 300 mM NaCl, 1mM EDTA pH 7.5; method: 700 to 800 μM FKBP injected into 50 μM Hsp90; Fig 2 picture: Hsp90β into FKBP^1-380 (panel C)
Excerpt: as §1, §2

T1 sequence (Q14318 1-380): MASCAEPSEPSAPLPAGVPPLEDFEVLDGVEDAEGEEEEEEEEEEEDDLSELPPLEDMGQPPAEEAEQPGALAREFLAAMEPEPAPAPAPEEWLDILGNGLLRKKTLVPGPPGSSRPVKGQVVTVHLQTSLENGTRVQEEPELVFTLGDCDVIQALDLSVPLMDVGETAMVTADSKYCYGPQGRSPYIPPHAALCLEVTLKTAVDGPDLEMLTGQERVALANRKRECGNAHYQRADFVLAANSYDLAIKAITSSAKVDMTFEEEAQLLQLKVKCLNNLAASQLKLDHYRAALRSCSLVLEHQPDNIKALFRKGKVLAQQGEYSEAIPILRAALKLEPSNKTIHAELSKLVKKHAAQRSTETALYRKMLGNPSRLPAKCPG

Q: With “yHsp90^546-709: yeast C-terminal fragment of Hsp90” as the substance, how does the “binding (in words)” value [1] read?
A: failed to bind

Q: And the “co-migration in gel filtration” value [2]?
A: co-migrate as a complex

Q: And the “co-migration in gel filtration” value [3]?
A: co-migrated

Q: With “Sti1: TPR domain protein Sti1 (HOP in humans)” as the substance, how does the “effect on ATPase activity of yeast Hsp90” value ([4]; TPR domain protein Sti1 (HOP in humans), previous studies, ref [42]) read?
A: inhibit; also recorded: strong inhibitor

Q: With “Hsp90β: Full-length human Hsp90β, expressed as His-tagged fusion” as the substance, how does the “binding (in words)” value [5] read?
A: failed to bind

Q: What about the Kd [6] of the same substance?
A: 2600 ± 200 nM

Q: What about the Kd [7] of the same substance?
A: 2800 ± 100 nM

Q: For Cpr6: yeast peptidyl-propyl isomerase, which “effect on ATPase activity of yeast Hsp90” value ([4]; peptidyl-propyl isomerase Cpr6, previous studies, ref [41]) is on record?
A: weakly activates

Q: For “Hsp90β^295-724: fragment representing the middle and C-terminal domain of Hsp90β”, which Kd [7] is on record?
A: 6400 ± 500 nM
